Data on 8 molecules can be found in US20140213531A1 (POLYPHOR, published 2014).

Common to all, as to test: cell-based or functional assay
Test [1] addresses T1, Elastase from human neutrophils (human, UniProt P08246 30-247, limits assumed).
T1 sequence (looked up): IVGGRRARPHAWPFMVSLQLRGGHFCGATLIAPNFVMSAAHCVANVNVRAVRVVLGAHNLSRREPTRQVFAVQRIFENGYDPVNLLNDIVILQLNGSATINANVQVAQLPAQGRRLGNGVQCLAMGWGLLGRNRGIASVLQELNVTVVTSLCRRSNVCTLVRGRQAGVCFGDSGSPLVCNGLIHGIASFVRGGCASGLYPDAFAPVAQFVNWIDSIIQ

Test [2] addresses Thrombin, from Human Plasma, high activity (human, UniProt P00734 328-622).
In test [3] the target is Chymotrypsin, from human pancreas (human, UniProt P17538 19-263).
Sequence of Chymotrypsin, from human pancreas (P17538 19-263): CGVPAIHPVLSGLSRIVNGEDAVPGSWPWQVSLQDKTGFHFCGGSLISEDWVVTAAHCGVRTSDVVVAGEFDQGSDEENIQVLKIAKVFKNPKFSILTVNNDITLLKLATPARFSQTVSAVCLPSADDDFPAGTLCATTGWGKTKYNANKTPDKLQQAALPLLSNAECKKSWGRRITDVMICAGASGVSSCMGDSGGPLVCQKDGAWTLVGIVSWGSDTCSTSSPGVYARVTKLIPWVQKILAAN
Test [4] addresses T2, Chymase, from human skin (human, UniProt P23946 22-247).
T2 sequence (looked up): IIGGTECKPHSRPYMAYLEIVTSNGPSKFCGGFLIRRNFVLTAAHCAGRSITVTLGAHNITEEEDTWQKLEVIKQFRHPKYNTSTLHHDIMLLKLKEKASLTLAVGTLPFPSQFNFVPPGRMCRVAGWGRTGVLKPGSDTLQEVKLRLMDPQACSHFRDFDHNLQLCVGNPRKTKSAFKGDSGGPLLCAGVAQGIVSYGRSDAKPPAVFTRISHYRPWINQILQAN

Test [5] addresses Tryptase, from human lung (human, UniProt Q15661 31-275, limits assumed).
Test [6] concerns the target T3, CathepsinG, from human neutrophils (human, UniProt P08311 21-244).
T3 sequence (looked up): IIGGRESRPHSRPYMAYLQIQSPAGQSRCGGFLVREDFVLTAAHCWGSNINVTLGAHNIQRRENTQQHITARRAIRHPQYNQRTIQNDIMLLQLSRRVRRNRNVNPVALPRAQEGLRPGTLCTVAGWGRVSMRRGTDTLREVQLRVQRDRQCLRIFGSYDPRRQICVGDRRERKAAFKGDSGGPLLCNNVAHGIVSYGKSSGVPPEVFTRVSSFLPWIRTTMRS

Test [7] concerns the target Trypsin, Iodination grade, from human pancreas (human, UniProt P07477 24-247).
Test [8] addresses Urokinase from human urine (human, UniProt P00749 21-431, limits assumed).

Bridges are numbered along the chain shown (N, C = ends). [ ]: non-standard residue; d: D form. Nle = CCCC[C@H](N)C(=O)O Some results are limits rather than exact numbers.

Sequence of Tryptase, from human lung (Q15661 31-275 limits assumed): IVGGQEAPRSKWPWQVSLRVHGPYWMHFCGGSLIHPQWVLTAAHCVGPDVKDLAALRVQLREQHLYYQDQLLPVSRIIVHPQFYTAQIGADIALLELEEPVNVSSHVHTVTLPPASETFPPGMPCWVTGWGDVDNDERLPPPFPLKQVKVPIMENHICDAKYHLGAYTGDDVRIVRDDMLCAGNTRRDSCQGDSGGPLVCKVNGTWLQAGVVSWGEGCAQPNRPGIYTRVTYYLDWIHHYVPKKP

B1: Example 17 (peptide)
peptide: ICTKSDPPQCR
HELM: PEPTIDE1{I.C.T.K.S.D.P.P.Q.C.R.[dP].P}$PEPTIDE1,PEPTIDE1,2:R3-10:R3|PEPTIDE1,PEPTIDE1,1:R1-13:R2$$$V2.0
SMILES: CC[C@H](C)[C@@H]1NC(=O)[C@@H]2CCCN2C(=O)[C@H]2CCCN2C(=O)[C@H](CCCNC(=N)N)NC(=O)[C@@H]2CSSC[C@H](NC1=O)C(=O)N[C@@H]([C@@H](C)O)C(=O)N[C@@H](CCCCN)C(=O)N[C@@H](CO)C(=O)N[C@@H](CC(=O)O)C(=O)N1CCC[C@H]1C(=O)N1CCC[C@H]1C(=O)N[C@@H](CCC(N)=O)C(=O)N2
By % inhibition is commonly meant how much of the control response was suppressed. Higher therefore signals a strong effect. With B1, the results for the IC50 in test [1] and in test [6] were greater than 100000 nmol and 55 nmol, respectively. Besides, the “% inhibition at 100 µM” value in test [2] is 0%; in test [3], 16%; in test [4], 27.6%; in test [5], 90.4%; in test [7], 90%.

B2: Example 42 (peptide)
peptide: cyclo([Nle]CTKSDPPICT[dP]P)
modifications: disulfide 2-10
Regarding B2, the “% inhibition at 100 µM” value in test [5] amounted to 0%; in test [8], 7%. The molecule also came in with an IC50 in test [6] of 46 nmol.

B3: Example 37 (peptide)
peptide: XCTKSDPPICN
HELM: PEPTIDE1{[O=C([C@@H](N[*:1])C1CCCCC1)[*:2]].C.T.K.S.D.P.P.I.C.N.[dP].P}$PEPTIDE1,PEPTIDE1,2:R3-10:R3|PEPTIDE1,PEPTIDE1,1:R1-13:R2$$$V2.0
SMILES: CC[C@H](C)[C@@H]1NC(=O)[C@@H]2CCCN2C(=O)[C@@H]2CCCN2C(=O)[C@H](CC(=O)O)NC(=O)[C@H](CO)NC(=O)[C@H](CCCCN)NC(=O)[C@H]([C@@H](C)O)NC(=O)[C@@H]2CSSC[C@H](NC1=O)C(=O)N[C@@H](CC(N)=O)C(=O)N1CCC[C@@H]1C(=O)N1CCC[C@H]1C(=O)N[C@@H](C1CCCCC1)C(=O)N2
For B3, the “% inhibition at 100 µM” value is 56% in test [5] and 5% in test [8]. In addition, the IC50 in test [6] turned out to be 35 nmol.

B4: Example 59 (peptide)
peptide: ICTXSDPPICR
HELM: PEPTIDE1{I.C.T.[Nle].S.D.P.P.I.C.R.[dP].P}$PEPTIDE1,PEPTIDE1,2:R3-10:R3|PEPTIDE1,PEPTIDE1,1:R1-13:R2$$$V2.0
SMILES: CCCC[C@@H]1NC(=O)[C@H]([C@@H](C)O)NC(=O)[C@@H]2CSSC[C@H](NC(=O)[C@H]([C@@H](C)CC)NC(=O)[C@@H]3CCCN3C(=O)[C@@H]3CCCN3C(=O)[C@H](CC(=O)O)NC(=O)[C@H](CO)NC1=O)C(=O)N[C@@H](CCCNC(=N)N)C(=O)N1CCC[C@@H]1C(=O)N1CCC[C@H]1C(=O)N[C@@H]([C@@H](C)CC)C(=O)N2
As for B4, the results for the IC50 in test [1] and in test [6] were greater than 100000 nmol and 55 nmol, respectively. Moreover, the “% inhibition at 100 µM” value was 0% in test [3]; 98.8% in test [4]; 3.8% in test [5]; 84% in test [7]; 5.7% in test [8].

B5: Example 22 (peptide)
peptide: ICTXSDPPICR
HELM: PEPTIDE1{I.C.T.[Nle].S.D.P.P.I.C.R.[dP].P}$PEPTIDE1,PEPTIDE1,2:R3-10:R3|PEPTIDE1,PEPTIDE1,1:R1-13:R2$$$V2.0
SMILES: CCCC[C@@H]1NC(=O)[C@H]([C@@H](C)O)NC(=O)[C@@H]2CSSC[C@H](NC(=O)[C@H]([C@@H](C)CC)NC(=O)[C@@H]3CCCN3C(=O)[C@@H]3CCCN3C(=O)[C@H](CC(=O)O)NC(=O)[C@H](CO)NC1=O)C(=O)N[C@@H](CCCNC(=N)N)C(=O)N1CCC[C@@H]1C(=O)N1CCC[C@H]1C(=O)N[C@@H]([C@@H](C)CC)C(=O)N2
On to B5, for which the IC50 in test [1] was greater than 100000 nmol; in test [6] it was 55 nmol. For the same molecule, the “% inhibition at 100 µM” value in test [3] amounted to 0%; in test [4], 98.8%; in test [5] it was 3.8%; in test [7], 84%; in test [8], 5.7%.

B6: Example 55 (peptide)
peptide: ICTKSDPPQCR
HELM: PEPTIDE1{I.C.T.K.S.D.P.P.Q.C.R.[dP].P}$PEPTIDE1,PEPTIDE1,2:R3-10:R3|PEPTIDE1,PEPTIDE1,1:R1-13:R2$$$V2.0
SMILES: CC[C@H](C)[C@@H]1NC(=O)[C@@H]2CCCN2C(=O)[C@H]2CCCN2C(=O)[C@H](CCCNC(=N)N)NC(=O)[C@@H]2CSSC[C@H](NC1=O)C(=O)N[C@@H]([C@@H](C)O)C(=O)N[C@@H](CCCCN)C(=O)N[C@@H](CO)C(=O)N[C@@H](CC(=O)O)C(=O)N1CCC[C@H]1C(=O)N1CCC[C@H]1C(=O)N[C@@H](CCC(N)=O)C(=O)N2
Turning to B6, the IC50 in test [1] was greater than 100000 nmol; in test [6], 55 nmol. Besides, the “% inhibition at 100 µM” value in test [3] amounted to 16%; in test [4] it was 27.6%; in test [5], 90.4%; in test [7], 90%.

B7: Example 65 (peptide)
peptide: XCTKSDPPYCY
HELM: PEPTIDE1{[O=C([C@@H](N[*:1])C1CCCCC1)[*:2]].C.T.K.S.D.P.P.Y.C.Y.[dP].P}$PEPTIDE1,PEPTIDE1,2:R3-10:R3|PEPTIDE1,PEPTIDE1,1:R1-13:R2$$$V2.0
SMILES: C[C@@H](O)[C@@H]1NC(=O)[C@@H]2CSSC[C@H](NC(=O)[C@H](Cc3ccc(O)cc3)NC(=O)[C@@H]3CCCN3C(=O)[C@@H]3CCCN3C(=O)[C@H](CC(=O)O)NC(=O)[C@H](CO)NC(=O)[C@H](CCCCN)NC1=O)C(=O)N[C@@H](Cc1ccc(O)cc1)C(=O)N1CCC[C@@H]1C(=O)N1CCC[C@H]1C(=O)N[C@@H](C1CCCCC1)C(=O)N2
For the molecule B7, the “% inhibition at 100 µM” value in test [5] was found to be 57%; in test [8], 1%. The molecule also came in with an IC50 in test [6] of 47 nmol.

B8: Example 36 (peptide)
peptide: XCTKSDPPICY
HELM: PEPTIDE1{[Cha].C.T.K.S.D.P.P.I.C.Y.[dP].P}$PEPTIDE1,PEPTIDE1,2:R3-10:R3|PEPTIDE1,PEPTIDE1,1:R1-13:R2$$$V2.0
SMILES: CC[C@H](C)[C@@H]1NC(=O)[C@@H]2CCCN2C(=O)[C@@H]2CCCN2C(=O)[C@H](CC(=O)O)NC(=O)[C@H](CO)NC(=O)[C@H](CCCCN)NC(=O)[C@H]([C@@H](C)O)NC(=O)[C@@H]2CSSC[C@H](NC1=O)C(=O)N[C@@H](Cc1ccc(O)cc1)C(=O)N1CCC[C@@H]1C(=O)N1CCC[C@H]1C(=O)N[C@@H](CC1CCCCC1)C(=O)N2
For the molecule B8, the “% inhibition at 100 µM” value in test [5] was found to be 73.3%; in test [8], 0%. In addition, the IC50 in test [6] amounted to 41 nmol.
